Consider three substances from patent US20040110253A1, “Method for identifying MHC-presented peptide epitopes for T cells” (priority 2002, published 2004).

In one assay the test system is T cell 3DT-52.5. The assay can be described thus: IL-2 production by T cell 3DT-52.5 in response to LKD8 cells plus synthetic peptide. Type of assay: cell-based, mouse. To be noted: synthetic peptide 100 ug/ml, D^d expressing Tap deficient cell line, twenty four hours. From the text:
FIG. 14B is a graph showing IL-2 produced by T cell […] in response to (1) P815 plus a bound unknown self-peptide and 2) LKD8, alone, or in the presence of the library derived peptide, TGPTRWCRL (SEQ ID NO:50), or a peptide derived from the spin protein, AGATRWCRL (SEQ ID NO:51).
DNA from a number of these clones was sequenced through the region encoding the peptide to determine the peptide sequence. Only one sequence was found, a 9mer, TGPTRWCRL (represented by SEQ ID NO:50; the underlined amino acids are in the positions varied in the library). […] A search of the mouse genome for proteins that contained peptides similar to the library peptide yielded a very similar sequence (AGATRWCRL; SEQ ID NO:51) intheprotein, spin(GenBank Accession No. BC011467). The library peptide and the spin peptide were synthesized and tested with a D^d expressing, Tap deficient, cell line for recognition by the original T cell (FIG. 14B). […] In the case of LKD8 the cell line was tested alone or in the presence of 100 ug/ml of the library derived peptide, TGPTRWCRL (SEQ ID NO:50), or a peptide derived from the spin protein, AGATRWCRL (SEQ ID NO:51). After twenty four hours the culture supernatants were assayed for IL-2. Without an added peptide, the D^d on this cell line was not recognized because the Tap deficiency prevents loading of endogenous peptides.

Assay [1] concerns the target IA^b-p3K displayed on baculovirus-infected SF9 insect cells (mouse; baculovirus). Kind of assay: flow cytometry, fluorescent multivalent soluble TCR on infected SF9 cells.
Assay [2] deals with IA^b-pEα displayed on baculovirus-infected SF9 insect cells (mouse; baculovirus). The description is as above.
The target of assay [3] is IA^b-… displayed on baculovirus-infected SF9 insect cells (mouse; baculovirus). The assay is described as above.
Assay [4] concerns the target IA^b-… (SEQ ID NO:25) displayed on baculovirus-infected SF9 insect cells (mouse; baculovirus). Described as above.
The target of assay [5] is IA^b-… (SEQ ID NO:26) displayed on baculovirus-infected SF9 insect cells (mouse; baculovirus). The description is as above.

In the case of “AGATRWCRL (listed as Mus musculus) [peptide derived from the spin protein]”, in the assay on T cell 3DT-52.5, the “restoration of the ability of LKD8 cells to stimulate the T cells (IL-2)” value is on record as “restored the ability of the cells to stimulate the T cells”.

On to “soluble αβTCR of B3K-06, fluorescent multivalent version”, for which the figures for the TCR Binding (% of p3K) in assay [1], in assay [2] and in assay [3] were 100 % of p3K, 0.4 % of p3K and 66.8 % of p3K, respectively.

“soluble αβTCR of YAe-62, fluorescent multivalent version”: the TCR Binding (% of p3K) in assay [4] was 58.3 % of p3K; in assay [1], 100 % of p3K; in assay [2], 0.3 % of p3K; in assay [5], 54.9 % of p3K.
